Laboratory results from PMC4709261, “Guanylate cyclase 1 relies on rhodopsin for intracellular stability and ciliary trafficking” (eLife, 2015).

Biological target: T1, retinal guanylate cyclase 1 (mouse (endogenous in retina), UniProt P52785 55-1108)
T1 construct: retinal guanylate cyclase 1 (GC-1), mouse, endogenous in the retina; Endogenous protein precipitated by the anti-GC-1 antibody 1S4 and detected by Western blotting; also called GC-1; RetGC1
T1 sequence (looked up): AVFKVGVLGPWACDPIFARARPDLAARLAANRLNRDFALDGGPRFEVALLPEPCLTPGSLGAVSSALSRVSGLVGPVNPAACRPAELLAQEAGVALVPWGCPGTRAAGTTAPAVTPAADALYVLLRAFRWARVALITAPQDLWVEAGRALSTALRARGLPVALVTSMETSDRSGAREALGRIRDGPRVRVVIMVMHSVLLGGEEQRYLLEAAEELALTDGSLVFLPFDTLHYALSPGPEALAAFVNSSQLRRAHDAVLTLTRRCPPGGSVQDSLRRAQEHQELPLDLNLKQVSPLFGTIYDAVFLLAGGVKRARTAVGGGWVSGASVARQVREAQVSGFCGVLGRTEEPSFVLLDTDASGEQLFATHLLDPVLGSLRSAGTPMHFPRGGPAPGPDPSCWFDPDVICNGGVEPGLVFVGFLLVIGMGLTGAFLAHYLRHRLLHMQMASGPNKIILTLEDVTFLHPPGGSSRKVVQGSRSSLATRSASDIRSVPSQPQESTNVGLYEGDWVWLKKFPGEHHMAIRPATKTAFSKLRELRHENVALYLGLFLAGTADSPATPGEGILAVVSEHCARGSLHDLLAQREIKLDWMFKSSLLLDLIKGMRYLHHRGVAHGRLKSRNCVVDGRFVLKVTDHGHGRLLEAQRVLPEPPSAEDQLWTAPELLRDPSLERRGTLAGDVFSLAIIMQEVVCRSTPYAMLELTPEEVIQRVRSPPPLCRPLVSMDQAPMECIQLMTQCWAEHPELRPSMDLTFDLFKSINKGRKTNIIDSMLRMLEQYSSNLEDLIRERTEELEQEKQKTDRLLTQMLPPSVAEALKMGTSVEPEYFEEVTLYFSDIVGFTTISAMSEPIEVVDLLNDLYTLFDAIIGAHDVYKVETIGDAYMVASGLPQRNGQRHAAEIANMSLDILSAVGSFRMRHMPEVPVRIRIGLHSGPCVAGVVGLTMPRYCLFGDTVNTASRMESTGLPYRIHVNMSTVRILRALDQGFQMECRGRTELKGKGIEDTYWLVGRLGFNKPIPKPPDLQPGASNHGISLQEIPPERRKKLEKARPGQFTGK
Assay: co-IP; Rho+/- mouse retinal lysate; anti-GC-1 antibody 1S4 (0.2 μg), minimal amount (5 μl) of protein A/G magnetic beads; eluate analysed by Western blotting for GC-1 and rhodopsin; control: non-immune mouse IgG
Conditions: partners not purified

B1: rhodopsin (receptor, mouse (endogenous in retina), UniProt P15409 1-348, looked up)
chain: MNGTEGPNFYVPFSNVTGVVRSPFEQPQYYLAEPWQFSMLAAYMFLLIVLGFPINFLTLYVTVQHKKLRTPLNYILLNLAVADLFMVFGGFTTTLYTSLHGYFVFGPTGCNLEGFFATLGGEIALWSLVVLAIERYVVVCKPMSNFRFGENHAIMGVVFTWIMALACAAPPLVGWSRYIPEGMQCSCGIDYYTLKPEVNNESFVIYMFVVHFTIPMIVIFFCYGQLVFTVKEAAAQQQESATTQKAEKEVTRMVIIMVIFFLICWLPYASVAFYIFTHQGSNFGPIFMTLPAFFAKSSSIYNPVIYIMLNKQFRNCMLTTLCCGKNPLGDDDASATASKTETSQVAPA
notes: rhodopsin, mouse, endogenous in the retina; Endogenous protein precipitated by, or detected with, the anti-rhodopsin antibody 1D4
  fold of rhodopsin precipitation with anti-GC-1 antibody over non-specific background with non-immune IgG: 6.5 fold
